Experimental data taken from publication PMC5416766.

Experiments:
CTF18-RFC;p261Nexo- = CTF18-RFC;p261Nexo- (human;human, UniProt Q8WVB6;Q9BVC3;P0CG13;P35250;P40938;P35249;P40937;Q07864 …, |D275A); assay: photo-crosslinking
CTF18-RFC = CTF18-RFC (human, UniProt Q8WVB6;Q9BVC3;P0CG13;P35250;P40938;P35249;P40937 …); assay: EMSA
CTF18-RFC;PCNA = CTF18-RFC;PCNA (human;human, UniProt Q8WVB6;Q9BVC3;P0CG13;P35250;P40938;P35249;P40937;P12004 …, |); assay: EMSA

B1: APB-Junction (dsDNA)
DNA 1: TGAGGTTCAGCAAGGTGATGCTTTAGATTTTTC
DNA 2: AGGCGGTCAGTATTAACACCGCCTGCAACAGTGCCACGCTGAGAGCCAGCAGCAAATGAAAAATCTAAAGCATCACCTTGCTGAACCTCA
modifications: APB on phosphorothioate dCMP at primer nt 33
binding signal (CTF18-RFC;p261Nexo-): ~3 fold p261Nexo- crosslink vs alone (CTF18 5-fold)

B2: dd-Junction (dsDNA)
DNA 1: TGAGGTTCAGCAAGGTGATGCTTTAGATTTTTCA
DNA 2: AGGCGGTCAGTATTAACACCGCCTGCAACAGTGCCACGCTGAGAGCCAGCAGCAAATGAAAAATCTAAAGCATCACCTTGCTGAACCTCA
modifications: 3' ddAMP (primer nt 34); APB on S-dCMP at primer nt 33
binding result (CTF18-RFC): no binding | binding result (CTF18-RFC;PCNA): no binding
